Drawing on patent US20210139548A1 (published 2021), this text covers Ki for five molecules.

*1 amine or outer side, *2 acyl side, *3 side chain or, on linkers, in order; H or OH if unused. Side-chain parts run from the residue outwards. The star is where a group is joined. C18 diacid = O=C(O)CCCCCCCCCCCCCCCCC(=O)*; γGlu = O=C(O)[C@H](CCC(=O)[*:2])N[*:1]; Isovaleryl = CC(C)CC(=O)*; AEEA = NCCOCCOCC(=O)O

First the molecules themselves.
B1: Compound 187 (peptide)
peptide: Isovaleryl-APEK([AEEA-AEEA-γGlu-C18 diacid])PEEDASPEELQRYYVSLRHQYNWLTRQRY-NH2
SMILES: CC(C)CC(=O)N[C@@H](C)C(=O)N1CCC[C@H]1C(=O)N[C@@H](CCC(=O)O)C(=O)N[C@@H](CCCCNC(=O)COCCOCCNC(=O)COCCOCCNC(=O)CC[C@H](NC(=O)CCCCCCCCCCCCCCCCC(=O)O)C(=O)O)C(=O)N1CCC[C@H]1C(=O)N[C@@H](CCC(=O)O)C(=O)N[C@@H](CCC(=O)O)C(=O)N[C@@H](CC(=O)O)C(=O)N[C@@H](C)C(=O)N[C@@H](CO)C(=O)N1CCC[C@H]1C(=O)N[C@@H](CCC(=O)O)C(=O)N[C@@H](CCC(=O)O)C(=O)N[C@@H](CC(C)C)C(=O)N[C@@H](CCC(N)=O)C(=O)N[C@@H](CCCNC(=N)N)C(=O)N[C@@H](Cc1ccc(O)cc1)C(=O)N[C@@H](Cc1ccc(O)cc1)C(=O)N[C@H](C(=O)N[C@@H](CO)C(=O)N[C@@H](CC(C)C)C(=O)N[C@@H](CCCNC(=N)N)C(=O)N[C@@H](Cc1c[nH]cn1)C(=O)N[C@@H](CCC(N)=O)C(=O)N[C@@H](Cc1ccc(O)cc1)C(=O)N[C@@H](CC(N)=O)C(=O)N[C@@H](Cc1c[nH]c2ccccc12)C(=O)N[C@@H](CC(C)C)C(=O)N[C@H](C(=O)N[C@@H](CCCNC(=N)N)C(=O)N[C@@H](CCC(N)=O)C(=O)N[C@@H](CCCNC(=N)N)C(=O)N[C@@H](Cc1ccc(O)cc1)C(N)=O)[C@@H](C)O)C(C)C
B2: Compound 192 (peptide)
peptide: Isovaleryl-APEK([AEEA-AEEA-γGlu-C18 diacid])PEEDAAPAELQRYYVSLRHYYNWLTRQRY-NH2
SMILES: CC(C)CC(=O)N[C@@H](C)C(=O)N1CCC[C@H]1C(=O)N[C@@H](CCC(=O)O)C(=O)N[C@@H](CCCCNC(=O)COCCOCCNC(=O)COCCOCCNC(=O)CC[C@H](NC(=O)CCCCCCCCCCCCCCCCC(=O)O)C(=O)O)C(=O)N1CCC[C@H]1C(=O)N[C@@H](CCC(=O)O)C(=O)N[C@@H](CCC(=O)O)C(=O)N[C@@H](CC(=O)O)C(=O)N[C@@H](C)C(=O)N[C@@H](C)C(=O)N1CCC[C@H]1C(=O)N[C@@H](C)C(=O)N[C@@H](CCC(=O)O)C(=O)N[C@@H](CC(C)C)C(=O)N[C@@H](CCC(N)=O)C(=O)N[C@@H](CCCNC(=N)N)C(=O)N[C@@H](Cc1ccc(O)cc1)C(=O)N[C@@H](Cc1ccc(O)cc1)C(=O)N[C@H](C(=O)N[C@@H](CO)C(=O)N[C@@H](CC(C)C)C(=O)N[C@@H](CCCNC(=N)N)C(=O)N[C@@H](Cc1c[nH]cn1)C(=O)N[C@@H](Cc1ccc(O)cc1)C(=O)N[C@@H](Cc1ccc(O)cc1)C(=O)N[C@@H](CC(N)=O)C(=O)N[C@@H](Cc1c[nH]c2ccccc12)C(=O)N[C@@H](CC(C)C)C(=O)N[C@H](C(=O)N[C@@H](CCCNC(=N)N)C(=O)N[C@@H](CCC(N)=O)C(=O)N[C@@H](CCCNC(=N)N)C(=O)N[C@@H](Cc1ccc(O)cc1)C(N)=O)[C@@H](C)O)C(C)C
B3: Compound 191 (peptide)
peptide: Isovaleryl-APEK([AEEA-AEEA-γGlu-C18 diacid])PEEDASPEELQRYYISLRHYYNWLTRQRY-NH2
SMILES: CC[C@H](C)[C@H](NC(=O)[C@H](Cc1ccc(O)cc1)NC(=O)[C@H](Cc1ccc(O)cc1)NC(=O)[C@H](CCCNC(=N)N)NC(=O)[C@H](CCC(N)=O)NC(=O)[C@H](CC(C)C)NC(=O)[C@H](CCC(=O)O)NC(=O)[C@H](CCC(=O)O)NC(=O)[C@@H]1CCCN1C(=O)[C@H](CO)NC(=O)[C@H](C)NC(=O)[C@H](CC(=O)O)NC(=O)[C@H](CCC(=O)O)NC(=O)[C@H](CCC(=O)O)NC(=O)[C@@H]1CCCN1C(=O)[C@H](CCCCNC(=O)COCCOCCNC(=O)COCCOCCNC(=O)CC[C@H](NC(=O)CCCCCCCCCCCCCCCCC(=O)O)C(=O)O)NC(=O)[C@H](CCC(=O)O)NC(=O)[C@@H]1CCCN1C(=O)[C@H](C)NC(=O)CC(C)C)C(=O)N[C@@H](CO)C(=O)N[C@@H](CC(C)C)C(=O)N[C@@H](CCCNC(=N)N)C(=O)N[C@@H](Cc1c[nH]cn1)C(=O)N[C@@H](Cc1ccc(O)cc1)C(=O)N[C@@H](Cc1ccc(O)cc1)C(=O)N[C@@H](CC(N)=O)C(=O)N[C@@H](Cc1c[nH]c2ccccc12)C(=O)N[C@@H](CC(C)C)C(=O)N[C@H](C(=O)N[C@@H](CCCNC(=N)N)C(=O)N[C@@H](CCC(N)=O)C(=O)N[C@@H](CCCNC(=N)N)C(=O)N[C@@H](Cc1ccc(O)cc1)C(N)=O)[C@@H](C)O
B4: Compound 193 (peptide)
peptide: Isovaleryl-APEK([AEEA-AEEA-γGlu-C18 diacid])PEEDASEEEIQRYYVSLRHYYNWLTRQRY-NH2
SMILES: CC[C@H](C)[C@H](NC(=O)[C@H](CCC(=O)O)NC(=O)[C@H](CCC(=O)O)NC(=O)[C@H](CCC(=O)O)NC(=O)[C@H](CO)NC(=O)[C@H](C)NC(=O)[C@H](CC(=O)O)NC(=O)[C@H](CCC(=O)O)NC(=O)[C@H](CCC(=O)O)NC(=O)[C@@H]1CCCN1C(=O)[C@H](CCCCNC(=O)COCCOCCNC(=O)COCCOCCNC(=O)CC[C@H](NC(=O)CCCCCCCCCCCCCCCCC(=O)O)C(=O)O)NC(=O)[C@H](CCC(=O)O)NC(=O)[C@@H]1CCCN1C(=O)[C@H](C)NC(=O)CC(C)C)C(=O)N[C@@H](CCC(N)=O)C(=O)N[C@@H](CCCNC(=N)N)C(=O)N[C@@H](Cc1ccc(O)cc1)C(=O)N[C@@H](Cc1ccc(O)cc1)C(=O)N[C@H](C(=O)N[C@@H](CO)C(=O)N[C@@H](CC(C)C)C(=O)N[C@@H](CCCNC(=N)N)C(=O)N[C@@H](Cc1c[nH]cn1)C(=O)N[C@@H](Cc1ccc(O)cc1)C(=O)N[C@@H](Cc1ccc(O)cc1)C(=O)N[C@@H](CC(N)=O)C(=O)N[C@@H](Cc1c[nH]c2ccccc12)C(=O)N[C@@H](CC(C)C)C(=O)N[C@H](C(=O)N[C@@H](CCCNC(=N)N)C(=O)N[C@@H](CCC(N)=O)C(=O)N[C@@H](CCCNC(=N)N)C(=O)N[C@@H](Cc1ccc(O)cc1)C(N)=O)[C@@H](C)O)C(C)C
B5: Compound 189 (peptide)
peptide: Isovaleryl-APEK([AEEA-AEEA-γGlu-C18 diacid])PEEDASEAELQRYYVSLRHYYNWLTRQRY-NH2
SMILES: CC(C)CC(=O)N[C@@H](C)C(=O)N1CCC[C@H]1C(=O)N[C@@H](CCC(=O)O)C(=O)N[C@@H](CCCCNC(=O)COCCOCCNC(=O)COCCOCCNC(=O)CC[C@H](NC(=O)CCCCCCCCCCCCCCCCC(=O)O)C(=O)O)C(=O)N1CCC[C@H]1C(=O)N[C@@H](CCC(=O)O)C(=O)N[C@@H](CCC(=O)O)C(=O)N[C@@H](CC(=O)O)C(=O)N[C@@H](C)C(=O)N[C@@H](CO)C(=O)N[C@@H](CCC(=O)O)C(=O)N[C@@H](C)C(=O)N[C@@H](CCC(=O)O)C(=O)N[C@@H](CC(C)C)C(=O)N[C@@H](CCC(N)=O)C(=O)N[C@@H](CCCNC(=N)N)C(=O)N[C@@H](Cc1ccc(O)cc1)C(=O)N[C@@H](Cc1ccc(O)cc1)C(=O)N[C@H](C(=O)N[C@@H](CO)C(=O)N[C@@H](CC(C)C)C(=O)N[C@@H](CCCNC(=N)N)C(=O)N[C@@H](Cc1c[nH]cn1)C(=O)N[C@@H](Cc1ccc(O)cc1)C(=O)N[C@@H](Cc1ccc(O)cc1)C(=O)N[C@@H](CC(N)=O)C(=O)N[C@@H](Cc1c[nH]c2ccccc12)C(=O)N[C@@H](CC(C)C)C(=O)N[C@H](C(=O)N[C@@H](CCCNC(=N)N)C(=O)N[C@@H](CCC(N)=O)C(=O)N[C@@H](CCCNC(=N)N)C(=O)N[C@@H](Cc1ccc(O)cc1)C(N)=O)[C@@H](C)O)C(C)C

For this assay, the target named is T1, human neuropeptide Y2 receptor (human, UniProt P49146 1-381).
T1 construct: whole, on cells; also called hNPY2 receptor; hNPY2-R
T1 sequence (looked up): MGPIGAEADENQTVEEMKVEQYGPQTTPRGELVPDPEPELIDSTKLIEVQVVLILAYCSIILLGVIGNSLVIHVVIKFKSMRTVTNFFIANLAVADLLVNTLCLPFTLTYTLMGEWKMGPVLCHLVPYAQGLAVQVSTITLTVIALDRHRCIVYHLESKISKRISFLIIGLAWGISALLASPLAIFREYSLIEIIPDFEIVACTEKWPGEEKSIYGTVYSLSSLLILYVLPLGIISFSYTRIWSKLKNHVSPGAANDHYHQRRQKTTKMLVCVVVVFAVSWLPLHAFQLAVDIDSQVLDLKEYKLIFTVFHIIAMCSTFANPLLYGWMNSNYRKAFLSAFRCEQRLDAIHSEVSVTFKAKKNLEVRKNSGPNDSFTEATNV
Description: radioligand competition (125I-PYY(1-36)), hNPY2R membranes. The method in brief: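 Commercial human Y2 receptor membranes (0.5 μg protein/well) were incubated with peptide for 2 h at room temperature in 50 mM HEPES, 5 mM MgCl₂, 1 mM CaCl₂, pH 7.4, with 0.2% ovalbumin. Bound radioligand was separated on PEI-soaked GF/C filters and counted by scintillation, and IC₅₀ came from nonlinear sigmoidal regression.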
With B1, the Ki was found to be 2.76 nM.

In turn, B2 yielded a Ki of 1.65 nM.

As for B3, the inhibition constant (Ki) came to 1.7 nM.

For B4, affinity was put at a Ki of 3.81 nM.

On to B5, for which the Ki was determined as 2.08 nM.
